Here are results for two sequences from publication PMC3590194.

This data set relates to bivalirudin (Angiomax), TMR-labeled (synthetic). In words: fluorescence anisotropy. As to conditions: 5 mM Mg2+?; BB = PBS (no MgCl2/CaCl2) with 5 mM MgCl2 (flow cytometry, 1 h incubation; FA buffer not stated in the material); pH and binding temperature not stated. For orientation: In fluorescence polarisation assays a small probe gives low polarisation when free and higher when bound to something large.

“ATCGTCTGCTCCGTCCAATACGTAACATCCCCGTAATACTACTACGGTCGTGCTGGTTTGGTGTGAGGTCGTGC [JPB2]” had a Kd of 5.99 µM. This counts as single-digit micromolar.

For the sequence “ATCGTCTGCTCCGTCCAATATATTGTGTGACCCCCCTCTTGTTTTGGTGTGAGGTCGTGC [JPB5]”, the Kd came to 5.76 µM.

By Kd is commonly meant the constant that tells how readily two partners part at equilibrium. A high value points to weaker binding.
